Results from FireProtDB (doi:10.1093/protein/gzw068).

B1: E42Q, Q93D82 (parent)
chain: MSTAIVTNVKHFGGMGSALRLSEAGHTVACHDESFKQKDELEAFAETYPQLKPMSEQEPAELIEAVTSAYGQVDVLVSNDIFAPEFQPIDKYAVEDYRGAVEALQIRPFALVNAVASQMKKRKSGHIIFITSATPFGPWKELSTYTSARAGACTLANALSKELGEYNIPVFAIGPNYLHSEDSPYFYPTEPWKTNPEHVAHVKKVTALQRLGTQKELGELVAFLASGSCDYLTGQVFWLAGGFPMIERWPGMPE

Variants of: B1
Conditions: Rhizobium radiobacter; pH 7.7; Thermal; CD; Phosphate 5mM; structure 1PWX; whole UniProt chain shown

Row | Variant | Tm | change of melting temperature, mutant - wild type (higher = more stable)
1 | MSTAIVTNVKHFGGMGSALRLSEAGHTVACHDESFKQKDELQAFAETYPQLKPMSEQEPAELIEAVTSAYGQVDVLVSNDIFAPEFQPIDKYAVEDYRGAVEALQIRPFALVNAVASQMKKRKSGHIIFITSATPFGPWKELSTYTSARAGACTLANALSKELGEYNIPVFAIGPNYLHSEDSPYFYPTEPWKTNPEHVAHVKKVTALQRLGTQKELGELVAFLASGSCDYLTGQVFWLAGGFPMIERWPGMPE [E42Q] | 64 °C | -1 °C
2 | MSTAIVTNVKHFGGMGSALRLSEAGHTVACHDESFKQKDELMAFAETYPQLKPMSEQEPAELIEAVTSAYGQVDVLVSNDIFAPEFQPIDKYAVEDYRGAVEALQIRPFALVNAVASQMKKRKSGHIIFITSATPFGPWKELSTYTSARAGACTLANALSKELGEYNIPVFAIGPNYLHSEDSPYFYPTEPWKTNPEHVAHVKKVTALQRLGTQKELGELVAFLASGSCDYLTGQVFWLAGGFPMIERWPGMPE [E42M] | 66.5 °C | 1.5 °C
3 | MSTAIVTNVKHFGGMGSALRLSEAGHTVACHDESFKEKDELEAFAETYPQLKPMSEQEPAELIEAVTSAYGQVDVLVSNDIFAPEFQPIDKYAVEDYRGAVEALQIRPFALVNAVASQMKKRKSGHIIFITSATPFGPWKELSTYTSARAGACTLANALSKELGEYNIPVFAIGPNYLHSEDSPYFYPTEPWKTNPEHVAHVKKVTALQRLGTQKELGELVAFLASGSCDYLTGQVFWLAGGFPMIERWPGMPE [Q37E] | 65 °C | 0 °C
4 | MSTAIVTNVKHFGGMGSALRLSEAGHTVACHDESFKDKDELEAFAETYPQLKPMSEQEPAELIEAVTSAYGQVDVLVSNDIFAPEFQPIDKYAVEDYRGAVEALQIRPFALVNAVASQMKKRKSGHIIFITSATPFGPWKELSTYTSARAGACTLANALSKELGEYNIPVFAIGPNYLHSEDSPYFYPTEPWKTNPEHVAHVKKVTALQRLGTQKELGELVAFLASGSCDYLTGQVFWLAGGFPMIERWPGMPE [Q37D] | 65 °C | 0 °C
5 | MSTAIVTNVKHFGGMGSALRLAEAGHTVACHDESFKQKDELEAFAETYPQLKPMSEQEPAELIEAVTSAYGQVDVLVSNDIFAPEFQPIDKYAVEDYRGAVEALQIRPFALVNAVASQMKKRKSGHIIFITSATPFGPWKELSTYTSARAGACTLANALSKELGEYNIPVFAIGPNYLHSEDSPYFYPTEPWKTNPEHVAHVKKVTALQRLGTQKELGELVAFLASGSCDYLTGQVFWLAGGFPMIERWPGMPE [S22A] | 64.5 °C | -0.5 °C
6 | MSTAIVTNVKHFGGMGSALRLSEAGHTVACHDESFKQKDELEAFLETYPQLKPMSEQEPAELIEAVTSAYGQVDVLVSNDIFAPEFQPIDKYAVEDYRGAVEALQIRPFALVNAVASQMKKRKSGHIIFITSATPFGPWKELSTYTSARAGACTLANALSKELGEYNIPVFAIGPNYLHSEDSPYFYPTEPWKTNPEHVAHVKKVTALQRLGTQKELGELVAFLASGSCDYLTGQVFWLAGGFPMIERWPGMPE [A45L] | 64 °C | -1 °C
7 | MSTAIVTNVKHFGGMGSALRLSEAGHTVACHDESFKQKDELEAFKETYPQLKPMSEQEPAELIEAVTSAYGQVDVLVSNDIFAPEFQPIDKYAVEDYRGAVEALQIRPFALVNAVASQMKKRKSGHIIFITSATPFGPWKELSTYTSARAGACTLANALSKELGEYNIPVFAIGPNYLHSEDSPYFYPTEPWKTNPEHVAHVKKVTALQRLGTQKELGELVAFLASGSCDYLTGQVFWLAGGFPMIERWPGMPE [A45K] | 65.5 °C | 0.5 °C
8 | MSTAIVTNVKHFGGMGSALRLSEAGHTVLCHDESFKQKDELEAFAETYPQLKPMSEQEPAELIEAVTSAYGQVDVLVSNDIFAPEFQPIDKYAVEDYRGAVEALQIRPFALVNAVASQMKKRKSGHIIFITSATPFGPWKELSTYTSARAGACTLANALSKELGEYNIPVFAIGPNYLHSEDSPYFYPTEPWKTNPEHVAHVKKVTALQRLGTQKELGELVAFLASGSCDYLTGQVFWLAGGFPMIERWPGMPE [A29L] | 68 °C | 3 °C
9 | MSTAIVTNVKHFGGMGSALRLSEAGMTVACHDESFKQKDELEAFAETYPQLKPMSEQEPAELIEAVTSAYGQVDVLVSNDIFAPEFQPIDKYAVEDYRGAVEALQIRPFALVNAVASQMKKRKSGHIIFITSATPFGPWKELSTYTSARAGACTLANALSKELGEYNIPVFAIGPNYLHSEDSPYFYPTEPWKTNPEHVAHVKKVTALQRLGTQKELGELVAFLASGSCDYLTGQVFWLAGGFPMIERWPGMPE [H26M] | 64.5 °C | -0.5 °C
10 | MSTAIVTNVKHFGGMGSALRLSEAGHTVACHDESFKQKDELEAFAEHYPQLKPMSEQEPAELIEAVTSAYGQVDVLVSNDIFAPEFQPIDKYAVEDYRGAVEALQIRPFALVNAVASQMKKRKSGHIIFITSATPFGPWKELSTYTSARAGACTLANALSKELGEYNIPVFAIGPNYLHSEDSPYFYPTEPWKTNPEHVAHVKKVTALQRLGTQKELGELVAFLASGSCDYLTGQVFWLAGGFPMIERWPGMPE [T47H] | 63.5 °C | -1.5 °C
11 | MSTAIVTNVKHFGGMGSALRLSEAGHTVACHDESFKQKDELEAFAEKYPQLKPMSEQEPAELIEAVTSAYGQVDVLVSNDIFAPEFQPIDKYAVEDYRGAVEALQIRPFALVNAVASQMKKRKSGHIIFITSATPFGPWKELSTYTSARAGACTLANALSKELGEYNIPVFAIGPNYLHSEDSPYFYPTEPWKTNPEHVAHVKKVTALQRLGTQKELGELVAFLASGSCDYLTGQVFWLAGGFPMIERWPGMPE [T47K] | 66 °C | 1 °C
12 | MSTAIVTNVKHFGGMGSALRLSEAGHTVACHDESFKQKDELEAFAEAYPQLKPMSEQEPAELIEAVTSAYGQVDVLVSNDIFAPEFQPIDKYAVEDYRGAVEALQIRPFALVNAVASQMKKRKSGHIIFITSATPFGPWKELSTYTSARAGACTLANALSKELGEYNIPVFAIGPNYLHSEDSPYFYPTEPWKTNPEHVAHVKKVTALQRLGTQKELGELVAFLASGSCDYLTGQVFWLAGGFPMIERWPGMPE [T47A] | 63 °C | -2 °C
13 | MSTAIVTNVKHFGGMGSALRLSEAGHTVACHDPSFKQKDELEAFAETYPQLKPMSEQEPAELIEAVTSAYGQVDVLVSNDIFAPEFQPIDKYAVEDYRGAVEALQIRPFALVNAVASQMKKRKSGHIIFITSATPFGPWKELSTYTSARAGACTLANALSKELGEYNIPVFAIGPNYLHSEDSPYFYPTEPWKTNPEHVAHVKKVTALQRLGTQKELGELVAFLASGSCDYLTGQVFWLAGGFPMIERWPGMPE [E33P] | 64.5 °C | -0.5 °C
14 | MSTAIVTNVKHFGGMGSALRLSEAGHTVAVHDESFKQKDELEAFAETYPQLKPMSEQEPAELIEAVTSAYGQVDVLVSNDIFAPEFQPIDKYAVEDYRGAVEALQIRPFALVNAVASQMKKRKSGHIIFITSATPFGPWKELSTYTSARAGACTLANALSKELGEYNIPVFAIGPNYLHSEDSPYFYPTEPWKTNPEHVAHVKKVTALQRLGTQKELGELVAFLASGSCDYLTGQVFWLAGGFPMIERWPGMPE [C30V] | 64 °C | -1 °C
15 | MSTAIVTNVKHFGGMGSALRLSEAGHTVACHDESFKQKEELEAFAETYPQLKPMSEQEPAELIEAVTSAYGQVDVLVSNDIFAPEFQPIDKYAVEDYRGAVEALQIRPFALVNAVASQMKKRKSGHIIFITSATPFGPWKELSTYTSARAGACTLANALSKELGEYNIPVFAIGPNYLHSEDSPYFYPTEPWKTNPEHVAHVKKVTALQRLGTQKELGELVAFLASGSCDYLTGQVFWLAGGFPMIERWPGMPE [D39E] | 65 °C | 0 °C
16 | MSTAIVTNVKHFGGMGSALRLSEAGHTVACHDESFKQKKELEAFAETYPQLKPMSEQEPAELIEAVTSAYGQVDVLVSNDIFAPEFQPIDKYAVEDYRGAVEALQIRPFALVNAVASQMKKRKSGHIIFITSATPFGPWKELSTYTSARAGACTLANALSKELGEYNIPVFAIGPNYLHSEDSPYFYPTEPWKTNPEHVAHVKKVTALQRLGTQKELGELVAFLASGSCDYLTGQVFWLAGGFPMIERWPGMPE [D39K] | 66.5 °C | 1.5 °C
17 | MSTAIVFNVKHFGGMGSALRLSEAGHTVACHDESFKQKDELEAFAETYPQLKPMSEQEPAELIEAVTSAYGQVDVLVSNDIFAPEFQPIDKYAVEDYRGAVEALQIRPFALVNAVASQMKKRKSGHIIFITSATPFGPWKELSTYTSARAGACTLANALSKELGEYNIPVFAIGPNYLHSEDSPYFYPTEPWKTNPEHVAHVKKVTALQRLGTQKELGELVAFLASGSCDYLTGQVFWLAGGFPMIERWPGMPE [T7F] | 65 °C | 0 °C
18 | MSTAIVMNVKHFGGMGSALRLSEAGHTVACHDESFKQKDELEAFAETYPQLKPMSEQEPAELIEAVTSAYGQVDVLVSNDIFAPEFQPIDKYAVEDYRGAVEALQIRPFALVNAVASQMKKRKSGHIIFITSATPFGPWKELSTYTSARAGACTLANALSKELGEYNIPVFAIGPNYLHSEDSPYFYPTEPWKTNPEHVAHVKKVTALQRLGTQKELGELVAFLASGSCDYLTGQVFWLAGGFPMIERWPGMPE [T7M] | 65 °C | 0 °C
19 | MSTAIVTNVKHFGGMGSALRLSEAGHVVACHDESFKQKDELEAFAETYPQLKPMSEQEPAELIEAVTSAYGQVDVLVSNDIFAPEFQPIDKYAVEDYRGAVEALQIRPFALVNAVASQMKKRKSGHIIFITSATPFGPWKELSTYTSARAGACTLANALSKELGEYNIPVFAIGPNYLHSEDSPYFYPTEPWKTNPEHVAHVKKVTALQRLGTQKELGELVAFLASGSCDYLTGQVFWLAGGFPMIERWPGMPE [T27V] | 64.5 °C | -0.5 °C
20 | MSTAIVTNVKHFGGMGSALRLSEAGHMVACHDESFKQKDELEAFAETYPQLKPMSEQEPAELIEAVTSAYGQVDVLVSNDIFAPEFQPIDKYAVEDYRGAVEALQIRPFALVNAVASQMKKRKSGHIIFITSATPFGPWKELSTYTSARAGACTLANALSKELGEYNIPVFAIGPNYLHSEDSPYFYPTEPWKTNPEHVAHVKKVTALQRLGTQKELGELVAFLASGSCDYLTGQVFWLAGGFPMIERWPGMPE [T27M] | 65 °C | 0 °C
21 | MSTAIVTNVKHFGGMGSALRLSEAGHLVACHDESFKQKDELEAFAETYPQLKPMSEQEPAELIEAVTSAYGQVDVLVSNDIFAPEFQPIDKYAVEDYRGAVEALQIRPFALVNAVASQMKKRKSGHIIFITSATPFGPWKELSTYTSARAGACTLANALSKELGEYNIPVFAIGPNYLHSEDSPYFYPTEPWKTNPEHVAHVKKVTALQRLGTQKELGELVAFLASGSCDYLTGQVFWLAGGFPMIERWPGMPE [T27L] | 65 °C | 0 °C
22 | MKTAIVTNVKHFGGMGSALRLSEAGHTVACHDESFKQKDELEAFAETYPQLKPMSEQEPAELIEAVTSAYGQVDVLVSNDIFAPEFQPIDKYAVEDYRGAVEALQIRPFALVNAVASQMKKRKSGHIIFITSATPFGPWKELSTYTSARAGACTLANALSKELGEYNIPVFAIGPNYLHSEDSPYFYPTEPWKTNPEHVAHVKKVTALQRLGTQKELGELVAFLASGSCDYLTGQVFWLAGGFPMIERWPGMPE [S2K] | 66 °C | 1 °C
23 | MSTAIVTNVKHFGGMGAALRLSEAGHTVACHDESFKQKDELEAFAETYPQLKPMSEQEPAELIEAVTSAYGQVDVLVSNDIFAPEFQPIDKYAVEDYRGAVEALQIRPFALVNAVASQMKKRKSGHIIFITSATPFGPWKELSTYTSARAGACTLANALSKELGEYNIPVFAIGPNYLHSEDSPYFYPTEPWKTNPEHVAHVKKVTALQRLGTQKELGELVAFLASGSCDYLTGQVFWLAGGFPMIERWPGMPE [S17A] | 65 °C | 0 °C
